One molecule from patent US20260009052, “CAS12 PROTEINS AND USES THEREOF” (GUANGZHOU REFORGENE MEDICINE CO., LTD., published 2026) can be followed below.

One data set deals with T1, C12-279 D352R (synthetic construct, D352R).
T1 chain: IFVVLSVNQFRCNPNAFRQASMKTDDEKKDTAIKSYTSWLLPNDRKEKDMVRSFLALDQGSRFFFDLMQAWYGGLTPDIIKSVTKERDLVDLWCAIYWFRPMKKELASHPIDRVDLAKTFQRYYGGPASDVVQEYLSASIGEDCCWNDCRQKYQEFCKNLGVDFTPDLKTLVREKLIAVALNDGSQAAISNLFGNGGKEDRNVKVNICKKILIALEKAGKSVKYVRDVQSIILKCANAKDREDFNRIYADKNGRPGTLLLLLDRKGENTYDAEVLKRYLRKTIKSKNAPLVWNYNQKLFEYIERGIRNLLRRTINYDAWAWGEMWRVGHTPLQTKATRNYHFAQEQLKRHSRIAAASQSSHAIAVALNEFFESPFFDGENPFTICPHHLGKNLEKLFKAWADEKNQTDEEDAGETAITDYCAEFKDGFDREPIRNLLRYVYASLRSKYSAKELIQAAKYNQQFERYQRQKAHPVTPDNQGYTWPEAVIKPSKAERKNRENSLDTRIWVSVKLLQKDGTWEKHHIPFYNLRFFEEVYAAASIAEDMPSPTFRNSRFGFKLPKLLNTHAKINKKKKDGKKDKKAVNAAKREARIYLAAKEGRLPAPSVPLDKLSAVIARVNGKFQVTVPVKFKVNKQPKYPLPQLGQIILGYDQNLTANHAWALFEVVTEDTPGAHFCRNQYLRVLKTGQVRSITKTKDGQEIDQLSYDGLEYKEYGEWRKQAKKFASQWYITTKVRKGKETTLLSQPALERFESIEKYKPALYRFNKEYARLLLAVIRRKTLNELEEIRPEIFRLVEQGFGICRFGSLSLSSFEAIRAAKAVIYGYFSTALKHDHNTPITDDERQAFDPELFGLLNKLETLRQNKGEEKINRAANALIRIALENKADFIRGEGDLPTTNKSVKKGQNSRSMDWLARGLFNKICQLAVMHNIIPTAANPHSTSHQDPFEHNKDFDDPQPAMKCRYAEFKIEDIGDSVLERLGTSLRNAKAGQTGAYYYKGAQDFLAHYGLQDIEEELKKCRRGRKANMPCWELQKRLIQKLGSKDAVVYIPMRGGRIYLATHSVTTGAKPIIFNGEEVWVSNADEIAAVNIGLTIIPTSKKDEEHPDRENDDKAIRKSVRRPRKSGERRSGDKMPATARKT
Put plainly: cell_activity; PAM TTG; +/-0.22. The protocol:
(§1) Transfection: transfection was performed 12-14 h after plating. 1.5 μL PEI (Yeasen Biotechnology, 40815ES03, Polyethylenimine Linear (PEI) MW25000) and 500 ng mutation clone plasmid were added to 100 μL Opti-MEM per well of the 24-well plate, mixed, and added to the NAAN cell line for cell transfection after placing at room temperature for 20 min. After overnight transfection, a fresh culture medium was replaced, and the culture was continued for 72 h, followed by flow cytometry. Editing efficiencies of different mutant clones were characterized by the proportion of GFP-positive cells.
(§2) Editing efficiency of some selected mutants was tested in Reporter3 cell line using the same manner as described for the NAAN reporter system, except that the cell line was changed from NAAN cell line to Reporter3 cell line.

The target of data set [1] is T2, C12-279 D352R/Q186R/H350R (synthetic construct, Q186R,H350R,D352R).
T2 chain: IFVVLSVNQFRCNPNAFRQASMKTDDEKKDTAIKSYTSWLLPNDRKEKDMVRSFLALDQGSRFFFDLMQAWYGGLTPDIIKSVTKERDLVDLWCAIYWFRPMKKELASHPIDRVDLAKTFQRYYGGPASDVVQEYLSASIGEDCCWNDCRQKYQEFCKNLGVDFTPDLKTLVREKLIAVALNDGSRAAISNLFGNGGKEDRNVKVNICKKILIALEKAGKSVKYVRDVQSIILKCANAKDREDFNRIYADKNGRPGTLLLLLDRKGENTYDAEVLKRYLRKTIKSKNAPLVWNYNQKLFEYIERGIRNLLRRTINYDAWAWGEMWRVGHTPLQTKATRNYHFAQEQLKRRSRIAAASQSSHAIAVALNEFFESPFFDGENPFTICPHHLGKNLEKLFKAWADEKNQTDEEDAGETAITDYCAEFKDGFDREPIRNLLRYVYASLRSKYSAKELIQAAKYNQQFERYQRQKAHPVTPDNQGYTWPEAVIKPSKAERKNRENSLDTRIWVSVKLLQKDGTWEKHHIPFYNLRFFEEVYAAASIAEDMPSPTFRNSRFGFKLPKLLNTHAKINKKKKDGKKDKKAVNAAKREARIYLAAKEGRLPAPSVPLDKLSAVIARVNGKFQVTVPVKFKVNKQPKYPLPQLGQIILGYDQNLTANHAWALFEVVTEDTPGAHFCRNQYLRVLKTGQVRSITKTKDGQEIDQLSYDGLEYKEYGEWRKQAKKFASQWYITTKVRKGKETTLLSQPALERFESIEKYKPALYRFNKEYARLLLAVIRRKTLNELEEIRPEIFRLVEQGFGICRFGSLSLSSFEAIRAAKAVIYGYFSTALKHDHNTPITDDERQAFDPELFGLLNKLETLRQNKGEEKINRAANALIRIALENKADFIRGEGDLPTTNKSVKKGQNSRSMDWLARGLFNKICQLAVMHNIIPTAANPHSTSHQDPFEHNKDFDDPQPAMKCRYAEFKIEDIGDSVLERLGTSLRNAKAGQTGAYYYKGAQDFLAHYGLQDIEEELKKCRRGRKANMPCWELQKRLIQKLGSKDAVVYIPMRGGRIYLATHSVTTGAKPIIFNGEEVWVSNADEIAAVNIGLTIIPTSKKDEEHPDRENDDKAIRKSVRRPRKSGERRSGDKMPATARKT
Put plainly: cell_activity; PAM TTG. The protocol: as §1, §2

B1: C12-279 Reporter3 sgRNA ; Reporter3 target (ssRNA ; dsDNA)
RNA: GUAAUGCGUCUCCCAUUGACGCCUCACCUCGCGACGCAAUGAUG
DNA 1: CTCACCTCGCGACGCAATGATG
DNA 2: CATCATTGCGTCGCGAGGTGAG
As to B1, the binding signal was 1.18 fold of C12-279 with C12-279 D352R and 2.11 fold of C12-279 in data set [1].
